Measured values published in PMC10896300.

Biological target: Recombinant 6×His-tagged CrMCA-II (Chlamydomonas reinhardtii)
Assay: SEC; purified rCrMCA-II in buffer without DTT and Ca2+; with 1 mM DTT in the SEC buffer the dimer-to-monomer ratio decreased

stoichiometry N: 2
Substance: Recombinant 6×His-tagged CrMCA-II (enzyme)
